How the values were obtained:
recombinant human IL-6 [1] = target: T1, recombinant human IL-6 (human, UniProt P05231 30-212); test: SPR Biacore, cell supernatant dual inhibitor captured on Protein A, IL-6 analyte, 25 C
T1 construct: Analyte in the Biacore assays; also called interleukin-6
T1 sequence (P05231 30-212 limits assumed): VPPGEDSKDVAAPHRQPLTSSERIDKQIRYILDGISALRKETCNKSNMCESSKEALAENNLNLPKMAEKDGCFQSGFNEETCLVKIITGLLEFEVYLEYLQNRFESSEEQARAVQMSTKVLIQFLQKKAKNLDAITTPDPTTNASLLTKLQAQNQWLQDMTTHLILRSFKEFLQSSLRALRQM

recombinant human IL-6 [2] = target: T1, recombinant human IL-6; test: SPR Biacore, purified dual inhibitor captured on Protein A, IL-6 analyte, 37 C
recombinant human IL-6 [3] = target: T2, recombinant human IL-6 (human, UniProt P05231 30-212); test: Biacore, Fab lysate over IL-6 chip, 25 C
T2 construct: bought protein; also called interleukin-6
Experimental: Fab libraries were constructed containing random single point mutations for all 71 CDR positions, excluding substitutions for Cys, Met and Asn due to the chemical liabilities associated with these amino acids. Small-scale expression in 96 well plates format was utilized for screening the Fab libraries. E. coli colonies (TG1 cells, Zymo Research) containing randomized single point mutations were picked into 96 well plates (1.5 mL) and grown overnight at 30° C. in LB Amp+2% glucose. A separate 96 well plate was created on the following day by removing 100 μL of culture and adding 100 μL of 30% glycerol, then stored at −80° C. The remaining culture was spun down for 20 min and later resuspended in 1.5 mL of LB Amp containing 1 mM IPTG for induction of protein expression at 30° C. After 5 hours, cells were spun down, resuspended in 500 μL of HBS-EP+ buffer and lysed by one freeze/thaw cycle. Lysates were centrifuged for 30 minutes and vacuum filtered (200 μL) into round bottom 96 well plates for Biacore analysis.
Three ranges of antigen density (100-150 RU, 300-400 RU, 400-600 RU) were obtained by using variable flow times for each chip channel, later blocked with ethanolamine. Supernatants of the 96-well filtered culture lysates were injected at […] for 120 seconds. Fitting of dissociation curves (300 seconds) to single exponential decay curve was used for the determination of dissociation rates (koff). Chip surfaces were regenerated with 10 mM Glycine pH 1.7 solution injected at 50 μL/min during 60 seconds after every cycle of sample binding and dissociation.
T2 sequence (P05231 30-212 limits assumed): as above

recombinant human IL-6 [4] = target: T2, recombinant human IL-6; test: Biacore, antibody captured on Protein A, IL-6 as analyte
Experimental: Antibodies were captured on a Protein A chip (GE) by injecting 1:20 cell supernatant dilutions at 10 μL/min for 60 seconds. […] The sensor chip was regenerated by a 60 seconds injection of 10 mM Glycine pH 1.7 at the flow rate of […]. […] For this setup, 1 μg/mL of purified antibody was injected over a Protein A chip at 10 μL/min for 25 seconds. […] The sensor chip was regenerated by a 60 seconds injection of 10 mM Glycine pH 1.7 at flow rate of 50 μL/min. Data analysis for supernatant and purified samples were performed using BIAevaluation software (GE). All sensorgrams were double reference subtracted and fit using a 1:1 Langmuir binding model.

Binder	koff (recombinant human IL-6 [3])	binding result (recombinant human IL-6 [4])	further results
dual inhibitor variant L of Table 2.1 (AntiIL-6-VEGF Trap) (other, Antibody-VEGF trap fusion, trap between Fab and Fc of the heavy chain (VH variant II); also called molecule L) heavy: EVQLVESGGGLVQPGGSLRLSCAASGFTFSPFAWSWVRQAPGKGLEWVAKISPGGSWTYYSDTVTDRFTFSLDTSKSTAYLQMNSLRAEDTAVYYCARQLWGYYALDVWGQGTLVTVSSASTKGPSVFPLAPSSKSTSGGTAALGCLVKDYFPEPVTVSWNSGALTSGVHTFPAVLQSSGLYSLSSVVTVPSSSLGTQTYICNVNHKPSNTKVDKKVEPKSCGGGGSGGGGSSDTGRPFVEMYSEIPEIIHMTEGRELVIPCRVTSPNITVTLKKFPLDTLIPDGKRIIWDSRKGFIISNATYKEIGLLTCEATVNGHLYKTNYLTHRQTNTIIDVVLSPSHGIELSVGEKLVLNCTARTELNVGIDFNWEYPSSKHQHKKLVNRDLKTQSGSEMKKFLSTLTIDGVTRSDQGLYTCAASSGLMTKKNSTFVRVHEKDKTHTCPPCPAPEAAGAPSVFLFPPKPKDTLMISRTPEVTCVVVDVSHEDPEVKFNWYVDGVEVHNAKTKPREEQYNSTYRVVSVLTVLHQDWLNGKEYKCKVSNKALPAPIEKTISKAKGQPREPQVYTLPPSREEMTKNQVSLTCLVKGFYPSDIAVEWESNGQPENNYKTTPPVLDSDGSFFLYSKLTVDKSRWQQGNVFSCSVMHEALHNHYTQKSLSCSPGK light: DIQLTQSPSSLSASVGDRVTITCSASISVSYLYWYQQKPGKAPKLLIYDDSNLASGVPSRFSGSGSGTDFTLTISSLQPEDFATYYCQQWSGYPYTFGQGTKVEIKRTVAAPSVFIFPPSDEQLKSGTASVVCLLNNFYPREAKVQWKVDNALQSGNSQESVTEQDSKDSTYSLSSTLTLSKADYEKHKVYACEVTHQGLSSPVTKSFNRGEC	–	–	Kd (recombinant human IL-6 [1]): 0.239 nM; koff (recombinant human IL-6 [1]): 0.000169 s⁻¹; kon (recombinant human IL-6 [1]): 705000 M⁻¹ s⁻¹; Kd (recombinant human IL-6 [2]): 0.436 nM; koff (recombinant human IL-6 [2]): 0.00065 s⁻¹; kon (recombinant human IL-6 [2]): 1.49e+06 M⁻¹ s⁻¹
anti-IL-6 Fab, heavy chain Q99A (Fab, V domains shown, built as m22 plus the named change) VH: EVQLVESGGGLVQPGGSLRLSCAASGFTFSPFAMSWVRQAPGKGLEWVAKISPGGSWTYYSDTVTGRFTFSLDTSKSTAYLQMNSLRAEDTAVYYCARALWGYYALDIWGQGTLVTVSS VL: DIQLTQSPSSLSASVGDRVTITCSASISVSYMYWYQQKPGKAPKLLIYDMSNLASGVPSRFSGSGSGTDFTLTISSLQPEDFATYYCMQWSGYPYTFGQGTKVEIK	0.00385 s⁻¹	–	–
anti-IL-6 Fab, heavy chain S30W (Fab, V domains shown, built as m22 plus the named change) VH: EVQLVESGGGLVQPGGSLRLSCAASGFTFWPFAMSWVRQAPGKGLEWVAKISPGGSWTYYSDTVTGRFTFSLDTSKSTAYLQMNSLRAEDTAVYYCARQLWGYYALDIWGQGTLVTVSS VL: DIQLTQSPSSLSASVGDRVTITCSASISVSYMYWYQQKPGKAPKLLIYDMSNLASGVPSRFSGSGSGTDFTLTISSLQPEDFATYYCMQWSGYPYTFGQGTKVEIK	0.00869 s⁻¹	–	–
anti-IL-6 Fab, heavy chain Y103D (Fab, V domains shown, built as m22 plus the named change) VH: EVQLVESGGGLVQPGGSLRLSCAASGFTFSPFAMSWVRQAPGKGLEWVAKISPGGSWTYYSDTVTGRFTFSLDTSKSTAYLQMNSLRAEDTAVYYCARQLWGDYALDIWGQGTLVTVSS VL: DIQLTQSPSSLSASVGDRVTITCSASISVSYMYWYQQKPGKAPKLLIYDMSNLASGVPSRFSGSGSGTDFTLTISSLQPEDFATYYCMQWSGYPYTFGQGTKVEIK	0.00503 s⁻¹	–	–
anti-IL-6 Fab, light chain S55I (Fab, V domains shown, built as m22 plus the named change) VH: EVQLVESGGGLVQPGGSLRLSCAASGFTFSPFAMSWVRQAPGKGLEWVAKISPGGSWTYYSDTVTGRFTFSLDTSKSTAYLQMNSLRAEDTAVYYCARQLWGYYALDIWGQGTLVTVSS VL: DIQLTQSPSSLSASVGDRVTITCSASISVSYMYWYQQKPGKAPKLLIYDMSNLAIGVPSRFSGSGSGTDFTLTISSLQPEDFATYYCMQWSGYPYTFGQGTKVEIK	0.005 s⁻¹	–	–
anti-IL-6 Fab, heavy chain S30V (Fab, V domains shown, built as m22 plus the named change) VH: EVQLVESGGGLVQPGGSLRLSCAASGFTFVPFAMSWVRQAPGKGLEWVAKISPGGSWTYYSDTVTGRFTFSLDTSKSTAYLQMNSLRAEDTAVYYCARQLWGYYALDIWGQGTLVTVSS VL: DIQLTQSPSSLSASVGDRVTITCSASISVSYMYWYQQKPGKAPKLLIYDMSNLASGVPSRFSGSGSGTDFTLTISSLQPEDFATYYCMQWSGYPYTFGQGTKVEIK	0.00352 s⁻¹	–	–
anti-IL-6 Fab, light chain A54Y (Fab, V domains shown, built as m22 plus the named change) VH: EVQLVESGGGLVQPGGSLRLSCAASGFTFSPFAMSWVRQAPGKGLEWVAKISPGGSWTYYSDTVTGRFTFSLDTSKSTAYLQMNSLRAEDTAVYYCARQLWGYYALDIWGQGTLVTVSS VL: DIQLTQSPSSLSASVGDRVTITCSASISVSYMYWYQQKPGKAPKLLIYDMSNLYSGVPSRFSGSGSGTDFTLTISSLQPEDFATYYCMQWSGYPYTFGQGTKVEIK	0.00529 s⁻¹	–	–
anti-IL-6 Fab, light chain S55T (Fab, V domains shown, built as m22 plus the named change) VH: EVQLVESGGGLVQPGGSLRLSCAASGFTFSPFAMSWVRQAPGKGLEWVAKISPGGSWTYYSDTVTGRFTFSLDTSKSTAYLQMNSLRAEDTAVYYCARQLWGYYALDIWGQGTLVTVSS VL: DIQLTQSPSSLSASVGDRVTITCSASISVSYMYWYQQKPGKAPKLLIYDMSNLATGVPSRFSGSGSGTDFTLTISSLQPEDFATYYCMQWSGYPYTFGQGTKVEIK	0.0052 s⁻¹	–	–
anti-IL-6 Fab, heavy chain S30G (Fab, V domains shown, built as m22 plus the named change) VH: EVQLVESGGGLVQPGGSLRLSCAASGFTFGPFAMSWVRQAPGKGLEWVAKISPGGSWTYYSDTVTGRFTFSLDTSKSTAYLQMNSLRAEDTAVYYCARQLWGYYALDIWGQGTLVTVSS VL: DIQLTQSPSSLSASVGDRVTITCSASISVSYMYWYQQKPGKAPKLLIYDMSNLASGVPSRFSGSGSGTDFTLTISSLQPEDFATYYCMQWSGYPYTFGQGTKVEIK	0.00977 s⁻¹	–	–

Further lines, with some results ahead:

koff (recombinant human IL-6 [3])	binding result (recombinant human IL-6 [4])	Binder	further results
–	binds	anti-IL-6 antibody, heavy chain variant I (M34I/G66D/I108V), light chain variant III (M32L/M50D/N52S/M88Q) (antibody, human IgG1, V domains shown, engineered human IgG1; also called I/III) VH: EVQLVESGGGLVQPGGSLRLSCAASGFTFSPFAISWVRQAPGKGLEWVAKISPGGSWTYYSDTVTDRFTFSLDTSKSTAYLQMNSLRAEDTAVYYCARQLWGYYALDVWGQGTLVTVSS VL: DIQLTQSPSSLSASVGDRVTITCSASISVSYLYWYQQKPGKAPKLLIYDDSSLASGVPSRFSGSGSGTDFTLTISSLQPEDFATYYCQQWSGYPYTFGQGTKVEIK	–
–	binds	anti-IL-6 antibody, heavy chain variant II (M34W/G66D/I108V), light chain variant III (M32L/M50D/N52S/M88Q) (antibody, human IgG1, V domains shown, engineered human IgG1; also called II/III) VH: EVQLVESGGGLVQPGGSLRLSCAASGFTFSPFAWSWVRQAPGKGLEWVAKISPGGSWTYYSDTVTDRFTFSLDTSKSTAYLQMNSLRAEDTAVYYCARQLWGYYALDVWGQGTLVTVSS VL: DIQLTQSPSSLSASVGDRVTITCSASISVSYLYWYQQKPGKAPKLLIYDDSSLASGVPSRFSGSGSGTDFTLTISSLQPEDFATYYCQQWSGYPYTFGQGTKVEIK	–
–	binds	anti-IL-6 antibody, heavy chain variant II (M34W/G66D/I108V), light chain variant V (M32L/M50D/M88Q) (antibody, human IgG1, V domains shown, engineered human IgG1; also called II/V) VH: EVQLVESGGGLVQPGGSLRLSCAASGFTFSPFAWSWVRQAPGKGLEWVAKISPGGSWTYYSDTVTDRFTFSLDTSKSTAYLQMNSLRAEDTAVYYCARQLWGYYALDVWGQGTLVTVSS VL: DIQLTQSPSSLSASVGDRVTITCSASISVSYLYWYQQKPGKAPKLLIYDDSNLASGVPSRFSGSGSGTDFTLTISSLQPEDFATYYCQQWSGYPYTFGQGTKVEIK	–
–	binds	anti-IL-6 antibody, heavy chain variant II (M34W/G66D/I108V), light chain variant IV (M32L/M50A/N52S/M88Q) (antibody, human IgG1, V domains shown, engineered human IgG1; also called II/IV) VH: EVQLVESGGGLVQPGGSLRLSCAASGFTFSPFAWSWVRQAPGKGLEWVAKISPGGSWTYYSDTVTDRFTFSLDTSKSTAYLQMNSLRAEDTAVYYCARQLWGYYALDVWGQGTLVTVSS VL: DIQLTQSPSSLSASVGDRVTITCSASISVSYLYWYQQKPGKAPKLLIYDASSLASGVPSRFSGSGSGTDFTLTISSLQPEDFATYYCQQWSGYPYTFGQGTKVEIK	–
–	binds	anti-IL-6 antibody, heavy chain variant I (M34I/G66D/I108V), light chain variant V (M32L/M50D/M88Q) (antibody, human IgG1, V domains shown, engineered human IgG1; also called I/V) VH: EVQLVESGGGLVQPGGSLRLSCAASGFTFSPFAISWVRQAPGKGLEWVAKISPGGSWTYYSDTVTDRFTFSLDTSKSTAYLQMNSLRAEDTAVYYCARQLWGYYALDVWGQGTLVTVSS VL: DIQLTQSPSSLSASVGDRVTITCSASISVSYLYWYQQKPGKAPKLLIYDDSNLASGVPSRFSGSGSGTDFTLTISSLQPEDFATYYCQQWSGYPYTFGQGTKVEIK	–
0.00943 s⁻¹	–	anti-IL-6 Fab, light chain V29L (Fab, V domains shown, built as m22 plus the named change) VH: EVQLVESGGGLVQPGGSLRLSCAASGFTFSPFAMSWVRQAPGKGLEWVAKISPGGSWTYYSDTVTGRFTFSLDTSKSTAYLQMNSLRAEDTAVYYCARQLWGYYALDIWGQGTLVTVSS VL: DIQLTQSPSSLSASVGDRVTITCSASISLSYMYWYQQKPGKAPKLLIYDMSNLASGVPSRFSGSGSGTDFTLTISSLQPEDFATYYCMQWSGYPYTFGQGTKVEIK	–
–	binds	anti-IL-6 antibody, heavy chain variant I (M34I/G66D/I108V), light chain variant IV (M32L/M50A/N52S/M88Q) (antibody, human IgG1, V domains shown, engineered human IgG1; also called I/IV) VH: EVQLVESGGGLVQPGGSLRLSCAASGFTFSPFAISWVRQAPGKGLEWVAKISPGGSWTYYSDTVTDRFTFSLDTSKSTAYLQMNSLRAEDTAVYYCARQLWGYYALDVWGQGTLVTVSS VL: DIQLTQSPSSLSASVGDRVTITCSASISVSYLYWYQQKPGKAPKLLIYDASSLASGVPSRFSGSGSGTDFTLTISSLQPEDFATYYCQQWSGYPYTFGQGTKVEIK	–
